From EP4089108A1 (Cytoki Pharma ApS, dated 2022)
Blank lines part the entries; values can stand above or below the binder they belong to.

Biological target: T1, human IL-22 receptor (human IL-22Ra and human IL-10Rb) expressed on BHK reporter cells (human, UniProt Q8N6P7 16-574; Q08334 20-325)
T1 sequence (looked up) 1: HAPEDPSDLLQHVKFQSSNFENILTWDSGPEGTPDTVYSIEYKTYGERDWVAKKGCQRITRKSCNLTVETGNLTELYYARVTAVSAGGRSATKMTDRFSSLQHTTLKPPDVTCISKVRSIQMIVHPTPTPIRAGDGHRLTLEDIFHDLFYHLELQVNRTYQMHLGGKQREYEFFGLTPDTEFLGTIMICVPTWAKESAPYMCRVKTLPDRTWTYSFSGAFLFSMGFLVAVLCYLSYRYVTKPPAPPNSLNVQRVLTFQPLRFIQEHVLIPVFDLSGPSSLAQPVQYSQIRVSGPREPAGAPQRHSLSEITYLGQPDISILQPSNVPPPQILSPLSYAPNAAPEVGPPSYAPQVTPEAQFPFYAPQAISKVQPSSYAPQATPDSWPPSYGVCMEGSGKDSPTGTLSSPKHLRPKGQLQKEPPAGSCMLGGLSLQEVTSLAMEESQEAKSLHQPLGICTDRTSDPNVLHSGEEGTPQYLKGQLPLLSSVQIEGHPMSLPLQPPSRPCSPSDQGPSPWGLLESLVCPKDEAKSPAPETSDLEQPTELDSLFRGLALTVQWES
T1 sequence (looked up) 2: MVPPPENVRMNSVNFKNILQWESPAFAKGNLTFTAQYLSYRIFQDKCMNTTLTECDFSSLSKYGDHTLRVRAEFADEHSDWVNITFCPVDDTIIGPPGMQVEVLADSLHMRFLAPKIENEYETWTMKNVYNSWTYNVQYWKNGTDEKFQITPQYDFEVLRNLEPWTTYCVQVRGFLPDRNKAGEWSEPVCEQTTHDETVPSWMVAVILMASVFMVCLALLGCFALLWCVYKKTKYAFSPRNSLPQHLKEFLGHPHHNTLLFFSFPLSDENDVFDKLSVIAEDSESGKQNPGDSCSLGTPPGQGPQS
Test: cell-based or functional assay

- EC50, BHK cell reporter gene assay (luciferase with STAT3-induced promoter): 0.06 nM
B1: Derivative 1 (ligand)
chain: GPGCPISSHCRLDKSNFQQPYITNRTFMLAKEASLADNNTDVRLIGEKLFHGVSMSERCYLMKQVLNFTLEEVLFPQSDRFQPYMQEVVPFLARLSNRLSTCHIEGDDLHIQRNVQKLKDTVKKLGESGEIKAIGELDLLFMSLRNACI
modifications: C16 monoacid covalently attached through linker γGlu-OEG-OEG-εLys-αAc to Cys at position 1 of hIL-22 numbering (attachment site 1C; position 4 of SEQ ID NO. 20)

- EC50, BHK cell reporter gene assay (luciferase with STAT3-induced promoter): 0.07 nM
B2: native mature human IL-22 (ligand)
chain: APISSHCRLDKSNFQQPYITNRTFMLAKEASLADNNTDVRLIGEKLFHGVSMSERCYLMKQVLNFTLEEVLFPQSDRFQPYMQEVVPFLARLSNRLSTCHIEGDDLHIQRNVQKLKDTVKKLGESGEIKAIGELDLLFMSLRNACI
